The values below come from the supplement of paper PMC10724198.

± gives the standard deviation of the averaged measurements.
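Further: PSI is a weighted mean of sequencing reads over stability bins, variants kept only with over 10 reads, mCherry proximal and sfGFP distal, peptide attached via GGGS linker.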

This data set has as its system Saccharomyces cerevisiae. Put plainly: protein stability index of tFT-peptide fusion (C-terminal peptide) (PSI (0-1 scale)); higher = more stable (slower turnover). The settings on record: genetic background: wild type; temperature: 30 C. On the procedure: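 Multiplexed protein stability (MPS) profiling in S. cerevisiae. Random 12-aa peptides (tFT-X12 library) are fused to the C-terminus of a sfGFP-mCherry tandem fluorescent timer, after mCherry and a GGGS linker. Cells are FACS-sorted into 8 mCherry/sfGFP bins and deep-sequenced. The protein stability index (PSI) is the read-weighted bin average, scaled from 0 (unstable) to 1 (stable). Only peptides with >10 reads are reported; cells were grown at 30 °C in SC-His with glucose.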
In turn, GPPHSGPIYLFP displayed a protein stability index of 0.6748 ± 0.0043.
Regarding GPPPPPPPRPPP, the protein stability index stood at 0.634 ± 0.007.
GPRLSGGLGGVG came in with a protein stability index of 0.637 ± 0.045.
On to GPRRGRSGSGWM, for which the protein stability index stood at 0.6499 ± 0.0057.
The sequence GPSKTGRPLSGT gave a protein stability index of 0.713 ± 0.026.
GPTPHQPRMDPR showed a protein stability index of 0.693 ± 0.011.
Turning to GPTRAIIFERRY, the protein stability index worked out at 0.741 ± 0.17.
In turn, GPVVHSAPRVRL registered a protein stability index of 0.686 ± 0.069.
In turn, GPWAGVRAEVKA displayed a protein stability index of 0.6505 ± 0.0047.
For the sequence GQGEGRGKIKKG, the protein stability index amounted to 0.782 ± 0.037.
Next, GQPLLVCMSGFW: 0.684 ± 0.01; GQSSYFRRFRVG: 0.6185 ± 0.0031.
GRAGQPCEGALP returned a protein stability index of 0.652 ± 0.021.
The sequence GRCLGREGVCGL showed a protein stability index of 0.673 ± 0.018.
Sequence GRCLSGRVVGGG gave a protein stability index of 0.7145 ± 0.0014.
In the case of GRCLWGRVGSVM it was 0.707 ± 0.018; in that of GRCPPPSPPHPL, 0.68 ± 0.038; in that of GRCRPATLRGPG, 0.656 ± 0.012.
In the case of GREEDLVAPPFN it was 0.715 ± 0.054; in that of GRFCGGAVSGGM, 0.634 ± 0.041.
Next, GRFSHRCGGGVW: 0.622 ± 0.046; GRFVAPDSHPVG: 0.682 ± 0.021; GRGAGRATQSPP: 0.597 ± 0.064.
For the sequence GRGCRGKDWWLW, the protein stability index worked out at 0.74 ± 0.055.
Sequence GRGEEKRDGGRR had a protein stability index of 0.673 ± 0.059.
Turning to GRGEKKKGAKKI, the protein stability index is 0.728 ± 0.028.
In turn, GRGERDIGVNQS had a protein stability index of 0.6792 ± 0.0031.
In the case of GRGFGVILGGCS it was 0.692 ± 0.02; in that of GRGGEGQGKRRE, 0.668 ± 0.034; in that of GRGSAVTGVYGV, 0.664 ± 0.059.
With GRHRGNVWGAVA, the protein stability index was 0.701 ± 0.043.
Next, GRKAEAEASLFS: 0.643 ± 0.1; GRKKKRREEKDT: 0.609 ± 0.027; GRKKTSAGGNQE: 0.702 ± 0.11.
In the case of GRKLLAGPDGDI it was 0.658 ± 0.039; in that of GRLSQWVPNGRA, 0.681 ± 0.076.
In the case of GRNAGPSLLPAL it was 0.684 ± 0.038; in that of GRNDYYTRKISV, 0.728 ± 0.17.
Consider GRNMQVTVQNRG, for which the protein stability index was 0.735 ± 0.02.
As to GRPSSMCTGWKV, the protein stability index turned out to be 0.74 ± 0.054.
For GRPYPPHFQHPS, the protein stability index was 0.773 ± 0.022.
Next, GRRRCGGGVEVC: 0.668 ± 0.014; GRSCSSWSSWGF: 0.716 ± 0.01; GRSGGVGVLWGG: 0.728 ± 0.017.
Regarding GRSGSGGTWELG, the protein stability index amounted to 0.643 ± 0.039.
Next, GRSHVGGCGGEG: 0.693 ± 0.035; GRSRAALASHIL: 0.612 ± 0.058; GRTCCGGGVGFG: 0.595 ± 0.033.
In the case of GRTEMNRIETTS it was 0.699 ± 0.037; in that of GRVRGVEGIGKG, 0.663 ± 0.018; in that of GRVVLRISCAQI, 0.6144 ± 0.00074.
In the case of GRVVVKTFRDFF it was 0.635 ± 0.064.
Sequence GSAFIRFRSSFG yielded a protein stability index of 0.638 ± 0.022.
GSCTVLPPPGPP: the protein stability index was 0.724 ± 0.018.
In the case of GSFGQLIIRYSS it was 0.568 ± 0.0088.
Next, GSFLGVRPGNVF: 0.828 ± 0.055; GSGGGEVCGCGG: 0.681 ± 0.048.
In the case of GSGIFHPVDLGL it was 0.688 ± 0.02; in that of GSGLEAGVRRWG, 0.67 ± 0.016; in that of GSGRGRETYIAK, 0.67947 ± 0.0002.
The sequence GSGRPARCVEGG had a protein stability index of 0.644 ± 0.03.
For the sequence GSGVGSRARRGR, the protein stability index worked out at 0.695 ± 0.02.
Regarding GSHGRLSWHVSR, the protein stability index was 0.7008 ± 0.00074.
In the case of GSLEGGGSGGGW it was 0.6743 ± 0.0048.
